These results are taken from patent US20130022605A1 (published 2013).

Residue numbers refer to the chain shown, from its start.

To fix the notation:
B1: TAR2m-21 (other)
chain: EVQLLESGGGLVQPGGSLRLSCAASGFTFTRYSMGWVRQAPGKGLEWVSRIDSYGRGTYYADSVKGRFTISRDNSKNTLYLQMNSLRAEDTAVYYCAKISQFGSNAFDYWGQGTLVTVSS
B2: TAR2m-21-48 (other)
chain: B1 chain with V12I, V37L, Y60D, A61T, K76R
B3: TAR2m-21-23 (other)
VH: B1 chain with T30N, V37L, A61E, S63P, T69S, L115Q
B4: TAR2m-21-07 (other)
chain: B1 chain with T30S, Y32C, V37L, Q101K
B5: TAR2m-21-43 (other)
chain: B1 chain with V37L, Y60D
B6: TAR2h-67 (other)
chain: EVQLLESGGGLVQPGGSLRLSCAASGFTFEDYPMAWVRQAPGKGLEWVSFIGLKGIHTYYADSVKGRFTISRDNSKNTLYLQMNSLRAEDTAVYYCAKDLNNFDYWGQGTLVTVSS
B7: TAR2h-14 (other)
chain: EVQLLESGGGLVQPGGSLRLSCAASGFTFDQYDMSWVRQAPGKGLEWVSLIDPSGGHTYYADSVKGRFTISRNNSKNTLYLQMNSLRAEDTAVYYCAKPVFSDWPAVEFDYWGQGTLVTVSS
notes: anti-human TNFR1 dAb
B8: TAR2h-41 (other)
chain: EVQLLESGGGLVQPGGSLRLSCAASGFTFDKYQMGWVRQAPGKGLEWVSFIDSNGHHTYYADSVKGRFTISRDNSKNTLYLQMNSLRAEDTAVYYCAELDNLSITPFDYWGQGTLVTVSS
notes: anti-human TNFR1 dAb
B9: TAR2h-12 (other)
chain: EVQLLESGGGLVQPGGSLRLSCAASGFTFVAYNMGWVRQAPGKGLEWVSFIDMYGAKTYYADSVKGRFTISRDNSKNTLYLQMNSLRAEDTAVYYCAKLCLMDCSGDIFDYWGQGTLVTVSS
B10: TAR2h-13 (other)
chain: EVQLLESGGGLVQPGGSLRLSCAASGFTFPADEMYWVRQAPGKGLEWVSSIGWPGGATYYADSVKGRFTISRDNSKNTLYLQMNSLRAEDTAVYYCAKYGRNFDYWGQGTLVTVSS
B11: TAR2h-18 (other)
chain: EVQLLESGGGLVQPGGSLRLSCAASGFTFADYNMTWVRQAPGKGLEWVSWIDQEGVFTYYADSVKGRFTISRDNSKNTLYLQMNSLRAEDTAVYYCAKDFSAAVMLRTSFDYWGQGTLVTVSS
B12: TAR2h-27 (other)
chain: EVQLLESGGGLVQPGGSLRLSCAASGFTFTDYNMAWVRQAPGKGLEWVSFISQEGHHTYYADSVKGRFTISRDNSKNTLYLQMNSLRAEDTAVYYCAKFSTIATLSLFDYWGQGTLVTVSS
notes: anti-human TNFR1 dAb
B13: TAR2h-35 (other)
chain: EVQLLESGGGLVQPGGSLRLSCAASGFTFDAYNMFWVRQAPGKGLEWVSAISPSGRETYYADSVKGRFTISRDNSKNTLYLQMNSLRAEDTAVYYCAKRYPDFDYWGQGTLVTVSS
B14: TAR2h-16 (other)
chain: EVQLLESGGGLVQPGGSLRLSCAASGFTFGNYDMQWVRQAPGKGLEWVSSIDGTGGTTYYADSVKGRFTISRDNSKNTLYLQMNSLRAEDTAVYYCAQETNAFDYWGQGTLVTVSS
notes: anti-human TNFR1 dAb
B15: TAR2h-29 (other)
chain: EVQLLESGGGLVQPGGSLRLSCAASGFTFATYNMGWVRQAPGKGLEWVSSIAWLGSETYYADSVKGRFTISRDNSKNTLYLQMNSLRAEDTAVYYCAKHCKAECTGDLFDYWGQGTLVTVSS
notes: anti-human TNFR1 dAb
B16: TAR2h-10 (other)
chain: EVQLLESGGGLVQPGGSLRLSCAASGFTFEWYWMGWVRQAPGKGLEWVSAISGSGGSTYYADSVKGRFTISRDNSKNTLYLQMNSLRAEDTAVYYCAKVKLGGGPNFDYWGQGTLVTVSS
notes: anti-human TNFR1 dAb; tied to the entry under the name TAR2-10; also called TAR2-10
B17: TAR2h-10-7 (other)
chain: B16 chain with E89K, W110R
B18: TAR2h-10-55 (other)
chain: B16 chain with T28P, G56D, L81Q, T91A, D108G, W110R
B19: TAR2h-42 (other)
chain: EVQLLESGGGLVQPGGSLRLSCAASGFTFAKYNMYWVRQAPGKGLEWVSAISPKGQHTYYADSVKGRFTISRDNSKNTLYLQMNSLRAEDTAVYYCAEGMGSDAITFDYWGQGTLVTVSS
notes: anti-human TNFR1 dAb
B20: TAR2h-44 (other)
chain: EVQLLESGGGLVQPGGSLRLSCAASGFTFLQYPMVWVRQAPGKGLEWVSSILAPGGPTYYADSVKGRFTISRDNSKNSLYLQMNSLRAEDTAVYYCAKHPTHTPHPNFDYWGQGTLVTVSS
notes: anti-human TNFR1 dAb
B21: TAR2h-17 (other)
chain: EVQLLESGGGLVQPGGSLRLSCAASGFTFGGYQMGWVRQAPGKGLEWVSFIDFTGAHTYYADSVKGRFTISRDNSKNTLYLQMNSLRAEDTAVYYCAKLSDDLTLPERFPFDYWGQGTLVTVSS
notes: anti-human TNFR1 dAb
B22: TAR2h-22 (other)
chain: EVQLLESGGGLVQPGGSLRLSCAASGFTFGEYNMAWVRQAPGKGQEWVSFISTGGHVTYYADSVKGRFTISRDNSKNTLYLQMNSLRAEDTAVYYCAKFSVRFRSSIFDYWGQGTLVTVSS
notes: anti-human TNFR1 dAb
B23: TAR2h-34 (other)
chain: EVQLLESGGGLVQPGGSLRLSCAASGFTFPEYGMAWVRQAPGKGLEWVSTISHGGEHTYYADSVKGRFTISRDNSKNTLYLQMNSLRAEDTAVYYCAQHPVSHPKFDYWGQGTLVTVSS
notes: anti-human TNFR1 dAb
B24: TAR2h-10-1 (other)
chain: B16 chain with S85N, W110R
notes: anti-human TNFR1 dAb
B25: TAR2h-10-3 (other)
chain: B16 chain with S21T
notes: anti-human TNFR1 dAb
B26: TAR2h-10-4 (other)
chain: B16 chain with V37I
notes: anti-human TNFR1 dAb
B27: TAR2h-51 (other)
chain: EVQLLESGGGLVQPGGSLRLSCAASGFTFATYNMSWVRQAPGKGLEWVSAIDAGGMHTYYADSVKGRFTISRDNSKNTLYLQMNSLRAEDTAVYYCAKGTEPFDYWGQGTLVTVSS
notes: anti-human TNFR1 dAb
B28: TAR2h-47 (other)
chain: EVQLLESGGGLVQPGGSLRLSCAASGFTFPVYNMAWVRQAPGKGLEWVSFIAGNGQQTYYADSVKGRFTISRDNSKNTLYLQMNSLRAEDTAVYYCAKFASKVSPMSLTDFDYWGQGTLVTVSS
notes: anti-human TNFR1 dAb
B29: TAR2h-15 (other)
chain: EVRLLESGGGLVQPGGSLRLSCAASGFTFGKYTMTWVRQAPGKGLEWVSHISDDGNSTYYADSVKGRFTISRDNSKNTLYLQMNSLRAEDTAVYYCAKVPILAPRNLFDYWGQGTLVTVSS
notes: anti-human TNFR1 dAb

One test deals with T1, mouse TNFR1 on L929 cells (mouse, UniProt P25118 30-454).
T1 sequence (looked up): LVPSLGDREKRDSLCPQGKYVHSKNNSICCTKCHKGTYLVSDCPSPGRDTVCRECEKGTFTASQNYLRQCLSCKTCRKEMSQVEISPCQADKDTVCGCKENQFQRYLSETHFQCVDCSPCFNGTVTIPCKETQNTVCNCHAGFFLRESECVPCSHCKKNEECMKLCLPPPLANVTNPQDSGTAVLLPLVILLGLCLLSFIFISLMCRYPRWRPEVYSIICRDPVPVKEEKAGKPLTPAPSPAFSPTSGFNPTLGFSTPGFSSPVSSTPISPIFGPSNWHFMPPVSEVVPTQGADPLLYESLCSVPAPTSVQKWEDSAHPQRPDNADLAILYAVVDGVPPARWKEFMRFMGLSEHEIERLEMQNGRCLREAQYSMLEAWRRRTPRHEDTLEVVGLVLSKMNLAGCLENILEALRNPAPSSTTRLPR
The test can be described thus: cell-based or functional assay.
For the molecule B1, the “L929 Cell Assay, Activity (IC50)” value amounted to 400 nM. For B2, the “L929 Cell Assay, Activity (IC50)” value is 6 nM. Same read-out and setting: to B3 belongs 1 nM; to B4, 10 nM; to B5, 6 nM.

For another test, the target named is T2, human TNFR1 on HeLa cells (human, UniProt P19438 30-455).
T2 sequence (looked up): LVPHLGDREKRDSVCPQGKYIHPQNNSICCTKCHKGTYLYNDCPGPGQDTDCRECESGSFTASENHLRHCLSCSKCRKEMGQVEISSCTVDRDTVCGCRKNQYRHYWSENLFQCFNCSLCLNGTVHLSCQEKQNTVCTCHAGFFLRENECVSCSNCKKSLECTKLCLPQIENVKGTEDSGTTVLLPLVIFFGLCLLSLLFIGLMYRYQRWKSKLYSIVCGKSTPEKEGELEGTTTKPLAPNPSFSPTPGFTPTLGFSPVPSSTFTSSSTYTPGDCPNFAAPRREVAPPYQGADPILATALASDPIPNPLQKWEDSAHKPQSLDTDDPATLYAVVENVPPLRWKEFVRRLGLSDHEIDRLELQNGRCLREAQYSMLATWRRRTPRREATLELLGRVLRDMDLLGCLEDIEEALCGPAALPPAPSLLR
The test can be described thus: cell-based or functional assay.
For B6, the “HeLa IL-8 Cell Assay, Activity (IC50)” value was 300 nM. Consider B7, for which the “HeLa IL-8 Cell Assay, Activity (IC50)” value was 300 nM. On to B8, for which the “HeLa IL-8 Cell Assay, Activity (IC50)” value was found to be 30 nM. B9: the “HeLa IL-8 Cell Assay, Activity (IC50)” value is 100 nM.

On to B10, for which the “HeLa IL-8 Cell Assay, Activity (IC50)” value stood at 300 nM. Same read-out and setting: to B11 belongs 400 nM; to B12, 3000 nM; to B13, 800 nM. For B14, the “HeLa IL-8 Cell Assay, Activity (IC50)” value came to 200 nM. For B15, the “HeLa IL-8 Cell Assay, Activity (IC50)” value came out at 300 nM. With B16, the “HeLa IL-8 Cell Assay, Activity (IC50)” value came to 50 nM. The same measure, in the same setting: to B17 belongs 30 nM; to B18, 20 nM.

In the case of B19, the “HeLa IL-8 Cell Assay, Activity (IC50)” value worked out at 10 nM. The same measure, in the same setting: with B20 the figure was 300 nM.

Another test deals with T3, TNF receptor 1 Fc fusion protein (R&D Systems) (human, UniProt P19438 30-211, limits assumed).
T3 construct: bought; also called recombinant TNF receptor 1 (p55); TNFR1-Fc; not shown: Fc part of the bought fusion protein; not described
T3 sequence: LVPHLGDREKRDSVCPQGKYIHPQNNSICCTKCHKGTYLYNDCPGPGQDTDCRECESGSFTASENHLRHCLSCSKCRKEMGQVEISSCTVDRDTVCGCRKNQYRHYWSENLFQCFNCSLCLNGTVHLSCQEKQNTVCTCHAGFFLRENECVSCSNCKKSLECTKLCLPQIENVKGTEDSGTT
The test can be described thus: receptor binding assay.
As a reminder, the IC50 is the point on the concentration scale where inhibition reaches its midpoint. B7 displayed an IC50 of 30 nM. Still for that read-out and setting: with B8 the figure was 8 nM; with B21, 100 nM. B22 showed an IC50 of 200 nM. The same measure, in the same setting: to B12 belongs 30 nM; to B23, 300 nM. With B14, the IC50 was 30 nM. In turn, B15 returned an IC50 of 300 nM. The molecule B16 gave an IC50 of 30 nM. B24 came in with an IC50 of 10 nM. On the same count and under the same terms, to B25 belongs 11 nM; to B26, 8 nM. Consider B27, for which the IC50 was found to be 80 nM. Molecule B28 came in with an IC50 of 8 nM.

For the molecule B19, the IC50 is 15 nM. On the same count and under the same terms, to B29 belongs 5 nM; to B20, 10 nM.
